Assay results published in PMC12947556.

How the values were obtained:
[1] = biological target: ([H3.2]·[H3.2K4me3K27me3]) heterotypic nucleosome (UniProt Q71DI3); assay: Captify Luminex bead-based binding assay; GST-PtSHL titrated to a multiplex panel of PTM-defined homotypic and heterotypic nucleosomes; median fluorescence intensity; EC50^rel
[2] = biological target: ([H3K4me3K27me3]2) homotypic nucleosome; assay: as above

fold preference over ([H3.2K4me3]·[H3.2K27me3]) or its comprising PTMs [1]: > 350 fold
fold preference over nucleosomes with each comprising PTM [2]: > 150 fold
Substance: GST-PtSHL BAH-PHD (domain or fragment)
